The values that follow come from publication PMC9870165, “Structure and neutralization mechanism of a human antibody targeting a complex Epitope on Zika virus” (PLOS Pathogens, 2023).

For test [1], the target named is T1, ZIKV E protein on wild-type Zika virus H/PF/2013 in culture supernatant (Zika virus strain H/PF/2013, UniProt A0A024B7W1).
T1 construct: also called WT ZIKV; ZIKV H/PF/2013; source: ZIKV in culture supernatant
Put plainly: ELISA; ZIKV capture ELISA: virus (WT or rZIKV-D67N) in culture supernatant captured by plate-bound mAb 4G2; mAbs added 1 h at 37°C; anti-human Fc alkaline phosphatase; signal normalized to ZKA-190. To be noted: one partner purified.

In test [2] the target is T2, recombinant ZIKV E protein (ectodomain of Zika virus envelope glycoprotein E) (Zika virus; PDB 8DV6 source …).
T2 construct: also called soluble E; E-dimer
The experiment in a line: crystal structure; recombinant ZIKV E and G9E Fab mixed 1:1.2 at room temperature for 30 min, complex purified on Superdex 200-increase; crystals in 100 mM HEPES pH 7.5, 10% (w/v) PEG 8000; 3.4 Å. As to conditions: both partners purified.

B1: HuZV-67, humanized version of the ZIKV specific mouse EDIII mAb ZV-67, IgG1 format (antibody, V domains shown)
VH: QAQLQQSGTGLARPGASVKLSCKASGYTFTSYGISWVTQRAGQGLEWIGVIYPRSGNTYYNEKFRGKATLTADKSSSSAYMELRGLTAEDSAVYFCARENYGSVYWGQGTTLTVSS
VL: DIVMTQSQKFMSTSVGDRVSITCKASQNVGTAVAWYQQKPGQSPKLLIYSASNRYTGVPDRFTGSGSGTDFTLTISNMQSEDLADYFCQQFSSYPYTFGGGTKLEIK
notes: IgG1; source: Expi293, purified (MabSelect resin)
Consider B1, for which, in test [1], the binding result is given as “binds”.

B2: G9E Fab (antigen binding fragment of human monoclonal antibody G9E, wild type) (Fab, V domains shown)
VH: RVHLVESGGGVVQPGRSLRLSCVASGFAFSNYHMHWVRQAPGKGLEWVAIIWDDGSDQYYADSVKGRFTISRDNSKNTLFLQMNRLRAEDTALYYCVGGSSAYNGDNGWREAASLDDWGQGTLVTVSS
VL: QSALTQPASVSGSPGQSITIFCSGSSNDVGGYNYVSWYQQYPGKVPKLLIYDVNSRPSGVSNRFSGSKSGNTASLTISGLQAEDEADYYCSSYTSRRTWVFGGGTIVTVL
notes: also called Fab G9E; G9E WT
For B2, the binding result in test [2] is reported as “binds”.
